Measured values taken from PMC6954390, “Negative cooperativity between Gemin2 and RNA provides insights into RNA selection and the SMN complex's release in snRNP assembly”.

Tests used:
SmD1s (Sm …) [1] = target: T1, SmD1s (Sm fold);SmD2;SmF;SmE;SmG;Gemin2ΔN39;SMNGe2BD (human;human;human;human;human;human;huma …, UniProt P62314;P62316;P62306;P62304;P62308;O14893;Q16637 …, del83-119|||||del1-39|); assay: EMSA; 7SΔN; Sm subcore formed; EMSA: 20 mM Tris-HCl pH 8.0, 250 mM NaCl, 2 mM MgCl2, 1 mM EDTA, 1 mM DTT, 37 C 40 min, RNA 50 pM and complex 2.5-10 pM as printed; GFC assembly assay conditions not in the material; settings: protein: recombinant;recombinant;recombinant;recombinant;recombinant;recombinant;recombinant; copies: 1;1;1;1;1;1;1; 5' and 3' stem-loops flank the Sm site
SmD1s (Sm …) [2] = target: T1, SmD1s (Sm …); assay: GFC/SDS-PAGE; 7SΔN; EMSA: 20 mM Tris-HCl pH 8.0, 250 mM NaCl, 2 mM MgCl2, 1 mM EDTA, 1 mM DTT, 37 C 40 min, RNA 50 pM and complex 2.5-10 pM as printed; GFC assembly assay conditions not in the material; settings: protein: recombinant;recombinant;recombinant;recombinant;recombinant;recombinant;recombinant, copies: 1;1;1;1;1;1;1
SmD1;SmD2;SmF;SmE;SmG [3] = target: T2, SmD1;SmD2;SmF;SmE;SmG (human;human;human;human;human, UniProt P62314;P62316;P62306;P62304;P62308 1-119;1-118;1-86;1-92;1-76, ||||); assay: GFC/SDS-PAGE; 5Sm without Gemin2; EMSA: 20 mM Tris-HCl pH 8.0, 250 mM NaCl, 2 mM MgCl2, 1 mM EDTA, 1 mM DTT, 37 C 40 min, RNA 50 pM and complex 2.5-10 pM as printed; GFC assembly assay conditions not in the material; settings: protein: recombinant;recombinant;recombinant;recombinant;recombinant; copies: 1;1;1;1;1
SmD1;SmD2;SmF;SmE;SmG [4] = target: T2, SmD1;SmD2;SmF;SmE;SmG; assay: GFC; 5Sm without Gemin2; EMSA: 20 mM Tris-HCl pH 8.0, 250 mM NaCl, 2 mM MgCl2, 1 mM EDTA, 1 mM DTT, 37 C 40 min, RNA 50 pM and complex 2.5-10 pM as printed; GFC assembly assay conditions not in the material; settings: protein: recombinant;recombinant;recombinant;recombinant;recombinant, copies: 1;1;1;1;1
SmD1s (Sm …) [5] = target: T1, SmD1s (Sm …); assay: GFC/SDS-PAGE; 7SΔN; Gemin2 starts to be released; EMSA: 20 mM Tris-HCl pH 8.0, 250 mM NaCl, 2 mM MgCl2, 1 mM EDTA, 1 mM DTT, 37 C 40 min, RNA 50 pM and complex 2.5-10 pM as printed; GFC assembly assay conditions not in the material; settings: protein: recombinant;recombinant;recombinant;recombinant;recombinant;recombinant;recombinant; copies: 1;1;1;1;1;1;1; 3' stem-loop
SmD1s (Sm …) [6] = target: T1, SmD1s (Sm …); assay: GFC; 7SΔN; EMSA: 20 mM Tris-HCl pH 8.0, 250 mM NaCl, 2 mM MgCl2, 1 mM EDTA, 1 mM DTT, 37 C 40 min, RNA 50 pM and complex 2.5-10 pM as printed; GFC assembly assay conditions not in the material; settings: protein: recombinant;recombinant;recombinant;recombinant;recombinant;recombinant;recombinant; copies: 1;1;1;1;1;1;1; single-stranded
[7] = target: T3, SmD1s (Sm fold);SmD2;SmF;SmE;SmG;SmD3 (Sm fold);SmB (Sm fold) (human;human;human;human;human;human;huma …, UniProt P62314;P62316;P62306;P62304;P62308;P62318;P14678 …, del83-119||||||); assay: GFC/SDS-PAGE; 7SΔN + SmD3/B input; complete core, Gemin2ΔN39/SMNGe2BD released; EMSA: 20 mM Tris-HCl pH 8.0, 250 mM NaCl, 2 mM MgCl2, 1 mM EDTA, 1 mM DTT, 37 C 40 min, RNA 50 pM and complex 2.5-10 pM as printed; GFC assembly assay conditions not in the material; settings: protein: recombinant;recombinant;recombinant;recombinant;recombinant;recombinant;recombinant; copies: 1;1;1;1;1;1;1; stem-loops flank the Sm site
[8] = target: T3, SmD1s (Sm fold);SmD2;SmF;SmE;SmG;SmD3 …; assay: GFC/SDS-PAGE; 7SΔN + SmD3/B input; core formation to completion; EMSA: 20 mM Tris-HCl pH 8.0, 250 mM NaCl, 2 mM MgCl2, 1 mM EDTA, 1 mM DTT, 37 C 40 min, RNA 50 pM and complex 2.5-10 pM as printed; GFC assembly assay conditions not in the material; settings: protein: recombinant;recombinant;recombinant;recombinant;recombinant;recombinant;recombinant; copies: 1;1;1;1;1;1;1; stem-loops; 3 nt spacer 5' of Sm site

B1: U4 (structured_RNA)
RNA: GGGAAUUGAAAACUUUUCCCAAUACCCCGCCGUGACGACUUGCAAUAUAGUCGGCACUGGCAAUUUUUGACAGUCUCUACGGAGACUG
Work on B1 yielded a binding signal (SmD1s (Sm …) [1]) of roughly 2 fold vs 7S.

GGGAAUUGAAAACUUUUCCCAAUACCCCAAUUUUUGA (ssRNA) [3'Sm]: no binding (SmD1s (Sm …) [2]); binds (SmD1;SmD2;SmF;SmE;SmG [3]).

B2: U4ΔSm (structured_RNA)
RNA: GGGAAUUGAAAACUUUUCCCAAUACCCCGCCGUGACGACUUGCAAUAUAGUCGGCACUGGCAACCCCCGACAGUCUCUACGGAGACUG
B2: no binding (SmD1s (Sm …) [2]; 5' and 3' stem-loops).

B3: U4-3'Δ (structured_RNA)
RNA: GGGAAUUGAAAACUUUUCCCAAUACCCCGCCGUGACGACUUGCAAUAUAGUCGGCACUGGCAAUUUUUGAC
B3: no binding (SmD1s (Sm …) [2]; 5' stem-loop).

B4: U4-5'ss (structured_RNA)
RNA: GGGAAUUGAAAACUUUUCCCAAUACCCCAAUUUUUGACAGUCUCUACGGAGACUG
B4: binds (SmD1;SmD2;SmF;SmE;SmG [4]; 3' stem-loop); binds (SmD1s (Sm …) [5]).

GGCAAUUUUUGACAGUCUCUACGCUCUGAC (ssRNA) [U4-5'Δ-3'ss]: binds (SmD1s (Sm …) [6]).

GGCAAUUUUUGACAGUCUCUACGGAGACUG (structured_RNA) [U4-5'Δ]: binds (SmD1;SmD2;SmF;SmE;SmG [4]; 3' stem-loop).

B5: flU4 (structured_RNA)
RNA: GGGCAGCUUUGCGCAGUGGCAGUAUCGUAGCCAAUGAGGUCUAUCCGAGGCGCGAUUAUUGCUAAUUGAAAACUUUUCCCAAUACCCCGCCGUGACGACUUGCAAUAUAGUCGGCACUGGCAAUUUUUGACAGUCUCUACGGAGACUG
B5: binds [7].

B6: flU4-spacer (structured_RNA)
RNA: GGGCAGCUUUGCGCAGUGGCAGUAUCGUAGCCAAUGAGGUCUAUCCGAGGCGCGAUUAUUGCUAAUUGAAAACUUUUCCCAAUACCCCGCCGUGACGACUUGCAAUAUAGUCGGCACUCCGAAUUUUUGACAGUCUCUACGGAGACUG
B6: binds [8].

AAUUUUUGA (ssRNA) [9nt Sm site]: binds (SmD1;SmD2;SmF;SmE;SmG [4]; single-stranded).
